Assay results reported in patent US20020055130A1, “Method and product for regulating apoptosis” (National Jewish Center for Immunology and Respiratory …, priority 1997, published 2002).

Key:
Assay type in all cases: cell-based, Human
ERK2 = ERK2 immunoprecipitation kinase assay, transfected HEK293 cells; details: co-expression with MEKK1
Procedure: (§1) Lysis buffer (70 mM β-glycerophosphate, 1 mM EGTA, 100 μM Na3VO4, 1 mM DTT, 2 mM MgCl2, 0.5% Triton-X100, 20 μg/ml aprotinin) was added to cells 15-24 hours after transfection. Cellular debris was removed by centrifugation at 8,000xg for 5 min. Protein concentration was normalized by Bradford assay using BSA as standard.
ERK2 was immunoprecipitated as described above for the JNK isoforms using the ERK2 (C-14) antibody (Santa Cruz Biotechnology). The beads were washed twice with 1 ml lysis buffer and twice with 1 ml lysis buffer without Triton-X100. […] The samples were washed thrice for 5 min each in 75 mM phosphoric acid and once for 2 min in acetone, air-dried, and their radioactivity determined in a β counter.

c-Jun kinase (JNK) = assay: c-Jun kinase assay, transfected HEK293 cells
Procedure: as §1
c-Jun kinase (JNK) activity was measured using a solid phase kinase assay in which glutathione S-transferase-c-Jun(1-79) (GST-Jun) bound to glutathione-Sepharose 4B beads was used to affinity-purify JNK from cell lysates as described (Gardner and Johnson, 1996; Hibi et al., 1993). Alternatively, JNKI or JNK2 were immunoprecipitated with isoform specific antibodies (Santa Cruz Biotechnology) and GST-Jun used as substrate in an in vitro kinase assay (Hibi et al., 1993). Quantitation of the phosphorylation of GST-Jun was performed with a Phosphorlmager.

MEKK1 = assay: Immunoblot of cleavage fragments of transfected HA-tagged MEKK1 in HEK293 cells
From the text: The full length cDNA encoding mouse MEKK1 was modified by addition of the HA-tag sequence ([…]) (SEQ ID NO: 12) at its NH2-terminus and inserted into the expression plasmid pCEP4 (Invitrogen), resulting in plasmid MEKK1.cp4. The MEKK1 sequences DTVD (amino acids 871-874) and DEVE (amino acids 857-860) in MEKK1.cp4 were substituted with alanines using a PCR strategy. The resulting plasmids were named DTVD_A.cp4 and DEVE_A.cp4. The cDNAs for CrmA (Pickup et al., 1986), p35 (Cartier et al., 1994), JNK1-APF (Dérijard et al., 1994) and JNK2-APF (Kallunki et al., 1994) were subcloned in pCEP4 in which the hygromycin resistance gene had been removed, resulting in plasmids CrmA.cp_, p35.cp_, JNK1_APF.cp and JNK2_APF.cp_. Plasmid pCDNA—3.cp4 is the result of the ligation of pCEP4 and pCDNA-3.
200-400 μg cell lysate protein was subjected to SDS-9% PAGE and transferred to nitrocellulose membranes. Blots were performed exactly as described (Widmann et al., 1995). To detect HA-tagged proteins, the mouse monoclonal antibody 12CA5 (Babco) was used as the primary antibody, followed by a rabbit anti-mouse antibody (Cappel). HRP-conjugated protein A at a 1/5000 dilution (Zymed) and ^125I-protein A at a 1/500 dilution (Dupont NEN) were then used for enhanced chemiluminescence (ECL) detection and for quantification using the phosphorimager. To detect MEKK1, 3 different ploclonal antisera were used as primary antibodies, followed by ECL detection using HRP-protein A (see above). These sera were generated by injecting rabbits with GST proteins fused with different portions of the MEKK1 protein.

HEK293 cells = assay: MEKK1 staining and TdT-mediated dUTP incorporation (DNA fragmentation) in transfected cells; details: expression in HEK293 cells
Procedure: Human embryonal kidney 293 cells (HEK293) stably expressing the EBNA-1 protein from Epstein-Barr virus (Invitrogen) were grown in Dulbecco's modified Eagle's medium (DMEM) supplemented with 100 U/ml penicillin/streptomycin and containing 10% bovine calf serum (BCS). The cells were transfected using lipofectamine (Gibco).
Cells were grown on glass coverslips and transfected using lipofectamine. Two days after transfection, the medium was removed and the cells were fixed in 2% paraformaldehyde, 3% sucrose in phosphate buffered saline (PBS) for 10 min at room temperature. Following three washes with PBS, the cells were permeabilized for 10 min with 2% Triton-X100 in PBS. After three PBS washes, the cells were blocked with filtered cultured medium for 15 min. The coverslips were then incubated 1 hour in TdT reaction mix (200 mM potassium cacodylate, 25 mM Tris.HCl, pH 6.6, 250 μg/ml BSA, 5 mM CoCl2, 0.25 U/μl TdT [Boehringer], 10 μM biotin-dUTP [Boehringer]) at 37° C. in a humidifed atmosphere. […] The coverslips were then washed 6× over a 30 min period with PBS and incubated 1 hour at room temperature with a 1/1000 dilution in filtered culture medium of a donkey anti-rabbit, Cy^3-conjugated, antibody (Jackson Immunological) mixed with 5 μg/ml streptavidin conjugated with FITC (Jackson Immunological). The coverslips were washed 6× with PBS and incubated overnight in PBS before being mounted in 20 mg/ml o-phenyldiamine-diHCl (Sigma) in 0.1 M Tris pH 8.5, 90% glycerol. Images were taken using a Leica DMRXA microscope and analyzed with the SlideBook v2.0 software (Intelligent Imaging Innovations, Denver). The subcellular localization of endogenous MEKK1 observed with the anti-COOH-terminal MEKK1 antibody was identical to that observed with a second antibody recognizing the NH2-terminal portion of the MEKK1 protein.

Molecule | effect on activation of ERK2 by MEKK1 (ERK2) | effect on activation of the JNKs by MEKK1 (c-Jun kinase (JNK); co-expression with MEKK1) | effect on proteolysis of MEKK1 (MEKK1; co-expression with MEKK1) | JNK activation (c-Jun kinase (JNK); expression in HEK293 cells) | MEKK1 cleavage fragments generated (MEKK1; mutants transfected into HEK293 cells) | DNA fragmentation (HEK293 cells)
JNK2-APF: inhibitory mutant of JNK2 (protein, UniProt P45984 1-424, looked up, variant T183A Y185F) Mitogen-activated protein …: MSDSKCDSQFYSVQVADSTFTVLKRYQQLKPIGSGAQGIVCAAFDTVLGINVAVKKLSRPFQNQTHAKRAYRELVLLKCVNHKNIISLLNVFTPQKTLEEFQDVYLVMELMDANLCQVIHMELDHERMSYLLYQMLCGIKHLHSAGIIHRDLKPSNIVVKSDCTLKILDFGLARTACTNFMMAPFVVTRYYRAPEVILGMGYKENVDIWSVGCIMGELVKGCVIFQGTDHIDQWNKVIEQLGTPSAEFMKKLQPTVRNYVENRPKYPGIKFEELFPDWIFPSESERDKIKTSQARDLLSKMLVIDPDKRISVDEALRHPYITVWYDPAEAEAPPPQIYDAQLEEREHAIEEWKELIYKEVMDWEERSKNGVVKDQPSDAAVSSNATPSQSSSINDISSMSTEQTLASDTDSSLDASTGPLEGCR | unaffected | unaffected | little effect on the proteolysis of the MEKK1 protein | – | – | –
DEVE→A: MEKK1 mutant with DEVE (amino acids 857-860) substituted with alanines (protein, UniProt P53349 2-1493, looked up, variant D857A E858A V859A E860A) Mitogen-activated protein …: AAAAGDRASSSGFPGAAAASPEAGGGGGGGGALQGSGAPAAGAAGLLREPGSAGRERADWRRRQLRKVRSVELDQLPEQPLFLAAASPPCPSTSPSPEPADAAAGASRFQPAAGPPPPGAASRCGSHSAELAAARDSGARSPAGAEPPSAAAPSGREMENKETLKGLHKMEDRPEERMIREKLKATCMPAWKHEWLERRNRRGPVVVKPIPIKGDGSEVNNLAAEPQGEGQAGSAAPAPKGRRSPSPGSSPSGRSVKPESPGVRRKRVSPVPFQSGRITPPRRAPSPDGFSPYSPEETSRRVNKVMRARLYLLQQIGPNSFLIGGDSPDNKYRVFIGPQNCSCGRGAFCIHLLFVMLRVFQLEPSDPMLWRKTLKNFEVESLFQKYHSRRSSRIKAPSRNTIQKFVSRMSNSHTLSSSSTSTSSSENSIKDEEEQMCPICLLGMLDEESLTVCEDGCRNKLHHHCMSIWAEECRRNREPLICPLCRSKWRSHDFYSHELSSPVESPASLRAVQQPSSPQQPVAGSQRRNQESSFNLTHFGTQQIPSAYKDLAEPWIQVFGMELVGCLFSRNWNVREMALRRLSHDVSGALLLANGESTGNSGGGSGGSLSAGAASGSSQPSISGDVVEACCSVLSIVCADPVYKVYVAALKTLRAMLVYTPCHSLAERIKLQRLLRPVVDTILVKCADANSRTSQLSISTVLELCKGQAGELAVGREILKAGSIGVGGVDYVLSCILGNQAESNNWQELLGRLCLIDRLLLEFPAEFYPHIVSTDVSQAEPVEIRYKKLLSLLTFALQSIDNSHSMVGKLSRRIYLSSARMVTAVPAVFSKLVTMLNASGSTHFTRMRRRLMAIAAAAAIAEVIQLGVEDTVDGHQDSLQAVAPTSCLENSSLEHTVHREKTGKGLSATRLSASSEDISDRLAGVSVGLPSSTTTEQPKPAVQTKGRPHSQCLNSSPLSHAQLMFPAPSAPCSSAPSVPDISKHRPQAFVPCKIPSASPQTQRKFSLQFQRNCSEHRDSDQLSPVFTQSRPPPSSNIHRPKPSRPVPGSTSKLGDATKSSMTLDLGSASRCDDSFGGGGNSGNAVIPSDETVFTPVEDKCRLDVNTELNSSIEDLLEASMPSSDTTVTFKSEVAVLSPEKAENDDTYKDDVNHNQKCKEKMEAEEEEALAIAMAMSASQDALPIVPQLQVENGEDIIIIQQDTPETLPGHTKAKQPYREDAEWLKGQQIGLGAFSSCYQAQDVGTGTLMAVKQVTYVRNTSSEQEEVVEALREEIRMMGHLNHPNIIRMLGATCEKSNYNLFIEWMAGGSVAHLLSKYGAFKESVVINYTEQLLRGLSYLHENQIIHRDVKGANLLIDSTGQRLRIADFGAAARLASKGTGAGEFQGQLLGTIAFMAPEVLRGQQYGRSCDVWSVGCAIIEMACAKPPWNAEKHSNHLALIFKIASATTAPSIPSHLSPGLRDVAVRCLELQPQDRPPSRELLKHPVFRTTW | – | – | – | activated JNK to the same level as wild type MEKK1 | cleaved into fragments A, B, C and D | induced DNA fragmentation
